Target: duck STING-LgBiT-Myc (pBiT-STING-LgBiT-Myc)
Assay: NanoBiT luciferase complementation in DEFs
Conditions: pBiT-STING-LgBiT-Myc 400 ng/well, pBiT-2KNS4B-SmBiT-Flag or mutant 400 ng/well, 20 h posttransfection, read off a plot

“duck TMUV 2KNS4B-SmBiT-Flag (pBiT-2KNS4B-SmBiT-Flag) K10A; K11A; D12A” was tested, and the response (parent: est. 1.7e6) was 1.4e+06 RLU.
“duck TMUV 2KNS4B-SmBiT-Flag (pBiT-2KNS4B-SmBiT-Flag) G4A; W5A; L6A” showed a response (parent: est. 1.7e6) of 1.3e+06 RLU.
“duck TMUV 2KNS4B-SmBiT-Flag (pBiT-2KNS4B-SmBiT-Flag) L35A” showed a response (parent: est. 3.3e7) of 2.6e+07 RLU.
“duck TMUV 2KNS4B-SmBiT-Flag (pBiT-2KNS4B-SmBiT-Flag) N1A” showed a response (parent: est. 3.3e7) of 3.6e+07 RLU.
In the case of “duck TMUV 2KNS4B-SmBiT-Flag (pBiT-2KNS4B-SmBiT-Flag) K11A”, the response (parent: est. 3.3e7) is reported as 2.6e+07 RLU.
“duck TMUV 2KNS4B-SmBiT-Flag (pBiT-2KNS4B-SmBiT-Flag) K10A” was tested, and the response (parent: est. 3.3e7) was 2e+07 RLU.
Substance “duck TMUV 2KNS4B-SmBiT-Flag (pBiT-2KNS4B-SmBiT-Flag) D34A; L35A; R36A” has a response (parent: est. 1.7e6) of 830000 RLU.
“duck TMUV 2KNS4B-SmBiT-Flag (pBiT-2KNS4B-SmBiT-Flag) W5A” showed a response (parent: est. 3.3e7) of 1.5e+07 RLU.
In the case of “duck TMUV 2KNS4B-SmBiT-Flag (pBiT-2KNS4B-SmBiT-Flag) N1A; E2A; M3A”, the response (parent: est. 1.7e6) is reported as 930000 RLU.
For “duck TMUV 2KNS4B-SmBiT-Flag (pBiT-2KNS4B-SmBiT-Flag) E2A”, the response (parent: est. 3.3e7) was 2.4e+07 RLU.
In the case of “duck TMUV 2KNS4B-SmBiT-Flag (pBiT-2KNS4B-SmBiT-Flag) G4A”, the response (parent: est. 3.3e7) is reported as 2.3e+07 RLU.
With “duck TMUV 2KNS4B-SmBiT-Flag (pBiT-2KNS4B-SmBiT-Flag) M3A” the response (parent: est. 3.3e7) was 2.2e+07 RLU.
For “duck TMUV 2KNS4B-SmBiT-Flag (pBiT-2KNS4B-SmBiT-Flag) D12A”, the response (parent: est. 3.3e7) was 2.4e+07 RLU.
“duck TMUV 2KNS4B-SmBiT-Flag (pBiT-2KNS4B-SmBiT-Flag) L6A” gave a response (parent: est. 3.3e7) of 2.7e+07 RLU.
For “duck TMUV 2KNS4B-SmBiT-Flag (pBiT-2KNS4B-SmBiT-Flag) Q8A”, the response (parent: est. 3.3e7) was 2.7e+07 RLU.
“duck TMUV 2KNS4B-SmBiT-Flag (pBiT-2KNS4B-SmBiT-Flag) E7A; Q8A; T9A” showed a response (parent: est. 1.7e6) of 830000 RLU.
For “duck TMUV 2KNS4B-SmBiT-Flag (pBiT-2KNS4B-SmBiT-Flag) E7A”, the response (parent: est. 3.3e7) was 2.5e+07 RLU.
“duck TMUV 2KNS4B-SmBiT-Flag (pBiT-2KNS4B-SmBiT-Flag) D34A” gave a response (parent: est. 3.3e7) of 1.7e+07 RLU.
Work on “duck TMUV 2KNS4B-SmBiT-Flag (pBiT-2KNS4B-SmBiT-Flag) T9A” yielded a response (parent: est. 3.3e7) of 2.9e+07 RLU.
“duck TMUV 2KNS4B-SmBiT-Flag (pBiT-2KNS4B-SmBiT-Flag) R36A” was tested, and the response (parent: est. 3.3e7) was 1.9e+07 RLU.

From paper PMC8165282
